Laboratory results: PMC2572620, “The Mycoplasma pneumoniae MPN229 gene encodes a protein that selectively binds single-stranded DNA and stimulates Recombinase A-mediated DNA strand exchange” (BMC Microbiology, 2008)

Biological target: the molecule itself
Assay: SEC; Sephadex G-150 column; 500 ul of untagged Mpn SSB at 0.3 mg/ml in 50 mM Tris-HCl pH 7.5, 135 mM NaCl; calibrated with BSA, ovalbumin and cytochrome C; fractions analysed by SDS-PAGE

B1: Mpn single-stranded DNA-binding protein (Mpn SSB), natural non-tagged form (natural protein, Mycoplasma pneumoniae, UniProt P75542 1-166, looked up)
chain: MNRVFLFGKLSFDPNKLQTRTNNIGASFSLACIDSSGFNDSKSYIRITAWGKVASFVLTLKPGDSVFVEGRLSTYKMNNRSDDPNSKATYALQVIADKVYRPDEENSLEQPVDKATVIDSPFLAAKTNATENELAQAFPISLDDEDDDINPILNNDSQLEEESDDE
notes: 166 amino acids, 18.4 kDa; ORF amplified from genomic DNA of strain MAC (ATCC 15492) with primers from the initiation codon to the termination codon; expressed in its natural, non-tagged form; Cloned from strain MAC; the genome entry for MPN229 is of strain M129; also called MPN229 protein product; M. pneumoniae SSB; source: E. coli BL21(DE3), pET-11c-MpnSSB, purified (ammonium sulphate …)
stoichiometry N: 4
